Test results from the nanobody polyreactivity screen of Harvey et al. (2022).

assay: yeast display, Sf9 membrane polyspecificity reagent, FACS + sequencing; frameworks hold sequencing errors
Method in brief: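 Sorting gates, low and high (top ~1%), were placed on anti-HA fluorescence to track expression and on streptavidin fluorescence to track reagent binding. A clone's polyreactivity label is taken from the gate it came out of. The reagent was 10% biotinylated, detergent-solubilized Sf9 membrane, applied for 1 hour at 4 °C to galactose-induced yeast display cells.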

Row | Sequence | polyreactivity (PSR sort gate)
1 | QVQLVESGGGLVQAGCSLRLSCAASGFIFLTNGMGWYRQAPGTERELVAVITSSTGSTSYADSVKGRFTISRDIAKNTVYLQMNSLKPEDTAVYYCDDSTGVSWYYPSGSLDYWGQGTQVNVSS | low polyreactivity
2 | QVQLVESGGGLVQAGGSLRLSCAASGRIFLSYAMGWYRQAPGKERELVAGITWNGGSTYYADSVKGRFTISRDNAKNTVYLQMNSLKPEDTAVFYCAADYFGFSYAGYNYWGQGTQVTVSS | low polyreactivity
3 | QVQLVESGGGLVQAGGSLRLSCAASGLTFAYYAMGWYRQAPGKETELVAAISWNGARTYYADSVKGRFTISRDNSKNTVYLQMNSLKPEDTAVYYCAAVRSASSWQYIWLKYYYWGQGTQVTVSS | high polyreactivity
4 | QVRLVESGGGLVQAGGSLRLSCAASGFIFRNNAMGWYRQAPGKERELVAVISFSGGSTYYADSVKGRFTISRDNAKNTVSLQMNSLKPEDTAVYYCTAKGWYYTRRSDYWGQGTQVTVSS | low polyreactivity
5 | QVQLVESGGCLVQAGGSLRLSCAASGSIFTRYAMGWYRQAPGKERELVADIRWGGGDTYYADSVKGRFTISRDNAKNTVYLQMNSLKPEDTAVYYCNADFGAPNTGRPEVQNSDEFGYWGQGTQVTVSS | low polyreactivity
6 | QDQLVESGGGLVQAGGSLRLSCAASGLTFYSNTMGWYRQAPGKERELVAGISWGGDTTYYADSVKGRFTISRDNAKNTVYLQMNSLKPEDTAVYYCAADRSYWRHRYSYDYWGQGTQVTVSS | low polyreactivity
7 | QVQLVESGGGLVQAGGSLRLSCAASGITFYRYAMGWYRQAPGKEREFVAAITWGSTYYADSVKGRFTISRDNAKNTVYLQMNSLTPEDTAVYYCNADWGGFWQHRELDSWGQGTQVTVSS | low polyreactivity
8 | QVQLVESGGGLVQAGGSLRLSCAASGFTFRRYAMGWYRQAPGKERELVAAINWNGDSTYYADSVKGRFTISRDNAKNTVYLQMNSVKPEDTAVYYCATSDYYYDYWGQGTQVTVSS | high polyreactivity
9 | QVQLVDSGGGLVQAGGSLRLSCAASGRTFYRNAMGWYRQAPGKVRELVAGISSGGFTYYADSVKGRFTITRDNAKNTFYLQMNSLKPEDTPVYYCAASAWSGYWFDYWGQGTQVTVSS | high polyreactivity
10 | QVQLVESGGGLVQAGGSLRLSCADSGRIFGSNAMGWYRQAPGKERELVAAISWRGASTYYADSVKGRFTISRDNAKNTVYLQMNSLKPEDTAVYYCATRGQTRTTTRYYSWGQGTQVTVSS | high polyreactivity
11 | QVQLVESGGGLVQAGGSLRLSCAASGLIFYGNAMGWYRKAPGKERELVAAISWSGGNTSYADSVKGRFTISRDNAKNTVYVLMNSLKAEDTAVDYCNADSLPSLERYGYWGQGTQVTVSS | low polyreactivity
12 | QVQLVESGGGLVQAGGSLRLSCAASGSTFDPNAMGWYRQAPGKERELVAVIDSGDGTTNYADSVKGRFTISRDNAKNTVYLQMNSLKPEDTAVYYCNKDTLVYGYVQDYEYWGQGTQVTVSS | low polyreactivity
13 | QVQLVESGGGLVQAGGSLRLSCAASGRIFLPYAMGWYRQAPGKERELVAAITQSGVITSYADSVKGRFTISRDNAKNTVYLQMNSLKPVDTAVYYCATVRTVIVFRFPYSYGYWGQGTQVTVSS | high polyreactivity
14 | QVQLVESGGGLVQAGGSLRLSCAASGRIFSKNAMGWCRQAPGKERELVAGITSNSGSTYYADSVKGRFTISRDNAKNTVYLQMNSLIPEDTAVYYCAARFPHRHYLLYTYDYWGQGTQVTVSS | low polyreactivity
15 | QVQLVESGGGLVQAGGSLRLSCAASGSTFVKYVMGWYRQAPGKERELVAAISWSGGSTYYADSVKGRFTISRDNAKNTVYLQMNSLKPEDTAVYYCAAVNWYDSYAKYYWGQGTQVTVSS | high polyreactivity
16 | QVQLVESGGGLVQAGGSLRLSCAASGSTFSDYAMGWYRQAPGKERELVAGITETGTTTYYADSVKGRFTISRDNAKNTVYLQMNSLKPEDTAVYYCAAYVVTYYYGTGYYSYDYWGQGTQVTVSS | low polyreactivity
